{"source": "patent US20030215792A1", "target": "CXCR4 receptor on cultivated primary astrocytes of rats (rat) (UniProt O08565)", "sequence (O08565 whole entry)": "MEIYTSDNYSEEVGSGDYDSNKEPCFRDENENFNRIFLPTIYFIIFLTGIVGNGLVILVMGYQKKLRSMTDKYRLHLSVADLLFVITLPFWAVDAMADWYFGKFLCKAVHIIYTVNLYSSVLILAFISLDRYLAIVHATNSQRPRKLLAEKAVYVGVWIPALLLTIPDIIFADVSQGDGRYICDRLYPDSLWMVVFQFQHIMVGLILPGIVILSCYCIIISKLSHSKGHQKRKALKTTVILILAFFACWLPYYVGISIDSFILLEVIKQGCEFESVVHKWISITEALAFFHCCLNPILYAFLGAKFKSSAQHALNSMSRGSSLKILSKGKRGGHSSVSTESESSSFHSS", "experiment": "cell-based or functional assay"}
{"substance": "SDF-1α (R&D Systems, Wiesbaden) (ligand)", "values": [{"measurement": "decrease in intracellular calcium outflow in cultivated astrocytes after 5 minutes' pre-incubation with monoclonal antibody 12G5", "result": 50, "unit": "%"}]}
